From patent US20230203156A1 (WILLIAM ROBERT ARATHOON LIVING TRUST DATED AUGUST 29 2016, published 2023)
Changes are numbered by the printed parent chain. Names and notes keep the numbering of the source. Values joined by “and” are separate entries in the source; they are usually repeats but may differ in a detail not shown here. Equal entries are not always repeated. Where two headings read alike, the source gives them in different places. Blank lines part the entries; values can stand above or below the binder they belong to.

How the values were obtained:
[1] = target: T1, human MDR1 (multidrug resistance protein 1) (human, UniProt P08183 1-1280); assay: cell-based or functional assay
[2] = target: T2, cynomolgus MDR1 (Macaca fascicularis) (Macaca fascicularis (cynomolgus), UniProt P08183 1-1280 (human entry)); assay: flow cytometry on cells expressing cynomolgus MDR1
T2 construct: also called cB1; cynomolgus ABCB1

[3] = target: T3, human CD47 (human, UniProt Q08722 19-323); assay: binding to C6 cells expressing human CD47, figure legend
T3 construct: whole, on cells; Overexpressed on rat C6 cells, or endogenous on human tumour cell lines; also called KT14; hKT14

[4] = target: T2, cynomolgus MDR1 (Macaca fascicularis); assay: flow cytometry
[5] = target: T2, cynomolgus MDR1 (Macaca fascicularis); assay: flow cytometry, 293T cells transfected with cynomolgus MDR1
[6] = target: T1, human MDR1 (multidrug resistance …); assay: binding to C6 cells overexpressing human ABCB1 (FIGS. 17A-17B)
[7] = target: T1, human MDR1 (multidrug resistance …); assay: cell-based or functional assay; remark: listed apart in the source
[8] = target: T1, human MDR1 (multidrug resistance …); assay: flow cytometry, 293T cells stably expressing human ABCB1 (293T_ABCB1_OX)
[9] = target: T3, human CD47; assay: binding to C6 cells overexpressing human CD47 (FIGS. 17A-17B)
[10] = target: T1, human MDR1 (multidrug resistance …); assay: flow cytometry
[11] = target: T1, human MDR1 (multidrug resistance …); assay: flow cytometry, 293T cells overexpressing human MDR1

IC50 of vincristine on N6/ADR cells with antibody [1]: 0.0038 nM
binding result [2]: binds
B1: B1.261 (antibody, human IgG1, V domains shown)
VH: QVQLKESGPGLVAPSQSLSITCTVSGFSLTSYGVHWVRQPPGKGLEWLVVIWSDGSTTYNSALKSRLSISKDNSKSQVFLKMNSLQIDDTAMYYCARHGRWLLQRGGAMDYWGQGTSVTVSS
VL: DVVMTQAPKFMSTSVGDRVSVTCRASQNVGSYIAWYQQKLGQSPKALIYSASYRCSGVPDRFTGSGAGTDFTLTIRNVQSEDLAEYFCQQYNSYPLTFGGGTKLEIK
notes: expressed with human IgG1 heavy and human kappa light constant regions; also called KNJY B1-261; KB1.261

binding result [3]: binds
B3: KT14.B6H12hu scFv-B1.261.hu1 (bispecific antibody, human IgG1, kappa)
scFv: not shown
heavy: EVQLQESGPGLVKPSETLSLTCTVSGFSLTSYGVHWVRQPPGKGLEWLVVIWSDGSTTYNSALKSRLTISKDNSKNQVSLKLSSVTAADTAVYYCARHGRWLLQRGGAMDYWGQGTMVTVSSASTKGPSVFPLAPSSKSTSGGTAALGCLVKDYFPEPVTVSWNSGALTSGVHTFPAVLQSSGLYSLSSVVTVPSSSLGTQTYICNVNHKPSNTKVDKRVEPKSCDKTHTCPPCPAPELLGGPSVFLFPPKPKDTLMISRTPEVTCVVVDVSHEDPEVKFNWYVDGVEVHNAKTKPREEQYNSTYRVVSVLTVLHQDWLNGKEYKCKVSNKALPAPIEKTISKAKGQPREPQVCTLPPSREEMTKNQVSLSCAVKGFYPSDIAVEWESNGQPENNYKTTPPVLDSDGSFFLVSKLTVDKSRWQQGNVFSCSVMHEALHNHYTQKSLSLSPGK
light: DVQMTQSPSSLSASVGDRVTITCRASQNVGSYIAWYQQKPGKSPKALIYSASYRSSGVPSRFSGSGAGTDFTLTISSLQPEDFATYFCQQYNSYPLTFGGGTKLEIKRTVAAPSVFIFPPSDEQLKSGTASVVCLLNNFYPREAKVQWKVDNALQSGNSQESVTEQDSKDSTYSLSSTLTLSKADYEKHKVYACEVTHQGLSSPVTKSFNRGEC

IC50 of vincristine on N6/ADR cells with antibody [7]: 0.466 nM
EC50 [8]: 14.6 nM
B8: 15D3 (antibody, V domains shown)
VH: EVKVVESGGVLVRPGGSLKLSCAASGFTFSRYTMSWVRQTPEKRLEWVATISSGGGNTYYPDSVKGRFTVSRDNAMSSLYLQMSSLRSEDTALYYCARYGAGDAWFAYWGQGTLVTVSS
VL: DVLMTQTPLSLPVSLGDQASISCRSSQSIVHSTGNTYLEWYLQKPGQSPKLLIYKVSNRFSGVPDRFSGSGSGTDFTLKISRLEAEDLGVYYCFQGSHFPRTFGGGTRLEIK
notes: Known anti-MDR1 antibody; also called KPA01; 15D3 hybridoma

binding result [9]: binds
binding result [6]: binds
B9: 15D3DD KT14KK B1.89v1 LC (bispecific antibody, human IgG1)
heavy 1: not shown
heavy 2: not shown
VL: B8 VL with S28T, T33N, N58K, L83V, G96A, R108K
notes: also called 15D3DD/KT14KK/89v1

IC50 of vincristine on N6/ADR cells with antibody [7]: 0.0064 nM
EC50 [8]: 118 nM
B13: BisAb-1 (15D3 HC-Hz1 DD hIgG1 / KT14 IgG1 KK / B1-28 VL humaniz) (bispecific antibody)
VH: EVQLVESGGVVVQPGGSLRLSCAASGFTFSRYTMSWVRQAPGKGLEWVATISSGGGQTYYPDSVKGRFTVSRDNSKNSLYLQMNSLRTEDTALYYCARYGAGDAWFAYWGQGTLVTVSS
heavy: not shown
VL: DVVLTQSPLSLPVTLGQPASISCRSSQNIVHSTGNTYLDWYQQRPGQSPRLLIYKVSNRFSGVPDRFSGSGSGTDFTLKISRVEAEDVGVYFCFQGSHIPRTFGQGTKLEIK
notes: The 15D3 Hz1 VH is fused to human IgG1 Fc with K392D and K409D (EU)

binding result [11]: no binding
binding result [5]: no binding
B19: B1.129.huH1-huL1(KV1) (antibody, human IgG1, V domains shown)
VH: EVQLVQSGAEVKKPGASVKVSCKASGYTFSTYVIHWVRQAPGQGLEWIGYIYPYNDYTKYNEKFKDRATLTSDKSTSTAYMELRSLRSDDTAVYYCSRAYYGNLVGYGVDYWGQGTTVTVSS
VL: DIQLTQSPSSLSASVGDRVTITCRASSSVSFIYWYQQKPGKSPKPWIFATSNLASGVPSRFSGSGSGTDYTLTISSLQPEDFATYYCHQWGSNLPTFGGGTKLEIK
notes: Humanized B1.129; Human IgG1/kappa constant regions; also called B1.129.hz2

Second part, the binder before the results:

B2: KT14.5F9hu scFv-B1.261.hu1 (bispecific antibody, human IgG1, kappa)
scFv: not shown
heavy: B3 heavy
light: B3 light
binding result [3]: binds

B4: B1.129 (antibody, human IgG1, V domains shown)
VH: EVQLQQSGPELVKPGASVKMSCKASGYTFSTYVIHWVKQKPGQGLEWIGYIYPYNDYTKYNEKFKDKATLTSDKSSSTAYMEIRSLTSEDSAVYYCSRAYYGNLVGYGVDYWGQGTSVTVSS
VL: QIVLTQSPAILPASPGEKVTMTCRASSSVSFIYWYQQRPGSSPKPWIFATSNLASGVPARFSGSGSGTSYSLTISRVEAEDAATYYCHQWGSNLPTFGGGTKLEIK
notes: expressed with human IgG1 heavy and human kappa light constant regions; also called KNJY B1-129; KB1.129
IC50 of vincristine on N6/ADR cells with antibody [1]: 0.0132 nM
binding result [4]: binds

B5: B1.28 (antibody, human IgG1, V domains shown)
VH: EVKLVESGGGLVKPGGSLKLSCAASGFTFGLYTMSWVRQTPERRLEWVATISSGGSNTYYPDSVKGRFTISRDNAKNNLFLQMNSLRSEDTALYYCARYYRYDAWFAYWGQGTLVTVSS
VL: B8 VL with M4L, S28N, E39D, L83V, Y92F, F99I, R108K
notes: expressed with human IgG1 heavy and human kappa light constant regions; also called KNJY B1-28; KB1.28
IC50 of vincristine on N6/ADR cells with antibody [1]: 3.34 nM and 2.87 nM
binding result [5]: binds

B6: 15D3DD KT14KK B1.28.huL2 LC (bispecific antibody, human IgG1)
heavy 1: not shown
heavy 2: not shown
VL: B13 VL with L15P, Q17E, Q42L, R44K, R50Q, F92Y
binding result [6]: binds

B7: MRK16 (antibody, V domains shown)
VH: B5 VH with K3I, G30S, L31S, R43K, S56G, F80Y, N84S, D103E, Y108S, S119A
VL: B8 VL with L9V, P12S, V56I, L83V, G96A, R108K
IC50 of vincristine on N6/ADR cells with antibody [7]: 0.734 nM

B10: B1.30 (antibody, human IgG1, V domains shown)
VH: B5 VH with K3M, G30S, L31S, R43K, S56G, F80Y, N84S, S119A
VL: B8 VL with L83V, A85T, F99V, R108K
IC50 of vincristine on N6/ADR cells with antibody [1]: 0.0522 nM

B11: B1.39 (antibody, human IgG1, V domains shown)
VH: EVMLVESGGGLVKPGGSLKLSCAASGFTFSSYTMSWVRQTPEKRLEWVATVSSGGGNTYYPDSVKGRFTISRDNAKNNLYLQMSSLRSEDTALYYCARYGNYGWFTYWGQGTLVTVSA
VL: B8 VL with V30L, T33N, G69A, L83V, V90I, F99V, R108K
IC50 of vincristine on N6/ADR cells with antibody [1]: 0.0909 nM

B12: B1.99 (antibody, human IgG1, V domains shown)
VH: EVQLVESGGALVKPGGSLKLSCAASGFTFSNYAMSWVRQTPERRLEWVATISSGGSYTYYPDSVKGRFTISRDNAKNTLYLQMSSLISEDTALYYCTRGYGNFAWFAYWGHGTLVTVSA
VL: B8 VL with L3V, A19V, T33Y, N35S, L83V, Y92F, F99I, R101Y, R108K, I111L
IC50 of vincristine on N6/ADR cells with antibody [1]: 0.0619 nM

B14: B1.275 (antibody, human IgG1, V domains shown)
VH: EVMLVESGGALVKPGGSLKVSCAASGFTFSNYAMSWVRQSPEMRLEWVATISSGGTNTYYPDSVKGRFTISRDNARNTLYLQMSSLRSKDTAMYYCARYSNYGWFPYWGQGTTLTVSS
VL: B8 VL with L3V, S28T, T33D, N35Y, K79R, L83V, F99V, R101Y, R108K
IC50 of vincristine on N6/ADR cells with antibody [1]: 0.0781 nM

B15: B1.85 (antibody, human IgG1, V domains shown)
VH: B12 VH with A33G, M34V, R43K, G54S, S63I, K65R, I87R, L93F, T97A, H111Q
VL: B8 VL with V2I, L3Q, T7S, S81N, L83V, F99V, R101Y, R108K
IC50 of vincristine on N6/ADR cells with antibody [1]: 0.0345 nM

B16: KT14.5F9hu scFv-B1.28.hu13 (bispecific antibody, human IgG1, kappa)
scFv: not shown
heavy: EVQLVESGGGLVKPGGSLRLSCAASGFTFGLYTMSWVRQAPGKGLEWVATISSGGSNTYYPDSVKGRFTISRDNAKNSLYLQMNSLRAEDTAVYYCARYYRYDAWFAYWGQGTLVTVSSASTKGPSVFPLAPSSKSTSGGTAALGCLVKDYFPEPVTVSWNSGALTSGVHTFPAVLQSSGLYSLSSVVTVPSSSLGTQTYICNVNHKPSNTKVDKRVEPKSCDKTHTCPPCPAPELLGGPSVFLFPPKPKDTLMISRTPEVTCVVVDVSHEDPEVKFNWYVDGVEVHNAKTKPREEQYNSTYRVVSVLTVLHQDWLNGKEYKCKVSNKALPAPIEKTISKAKGQPREPQVCTLPPSREEMTKNQVSLSCAVKGFYPSDIAVEWESNGQPENNYKTTPPVLDSDGSFFLVSKLTVDKSRWQQGNVFSCSVMHEALHNHYTQKSLSLSPGK
light: EVVLTQSPATLSLSPGERATLSCRSSQNIVHSTGNTYLDWYQQKPGQSPRLLIYKVSNRFSGVPARFSGSGSGTDFTLTISSLEPEDFAVYYCFQGSHIPRTFGGGTKLEIKRTVAAPSVFIFPPSDEQLKSGTASVVCLLNNFYPREAKVQWKVDNALQSGNSQESVTEQDSKDSTYSLSSTLTLSKADYEKHKVYACEVTHQGLSSPVTKSFNRGEC
binding result [3]: binds

B17: KT14.B6H12hu scFv-B1.28.hu13 (bispecific antibody, human IgG1, kappa)
scFv: not shown
heavy: B16 heavy
light: B16 light
binding result [3]: binds

B18: B1.129.huH1-huL1(KV3) (antibody, human IgG1, V domains shown)
VH: B19 VH
VL: EIVLTQSPATLSLSPGERATLSCRASSSVSFIYWYQQKPGQSPRPWIFATSNLASGVPARFSGSGSGTDYTLTISSLEPEDFAVYYCHQWGSNLPTFGGGTKLEIK
notes: Humanized B1.129; Human IgG1/kappa constant regions; also called B1.129.hz1
binding result [10]: binds
binding result [5]: binds

B20: 15D3DD KT14KK MRK16v5 LC (bispecific antibody, human IgG1)
heavy 1: not shown
heavy 2: not shown
VL: DIVMTQTPLSSPVTLGQPASISCRSSQSIVYSNGNTYLEWYQQKPGQPPRLLIYKISNRFSGVPDRFSGSGAGTDFTLKISRVEAEDVGVYYCFQASHFPRTFGGGTKLEIK
binding result [9]: binds
binding result [6]: binds
